21 substances from publication PMC9065133 can be followed below.

Holding throughout (assay): SEC-MALLS
Test [1] concerns the target MVV IN H12N (maedi-visna virus (KV1772 isolate)).
The target in test [2] is MVV IN QQ207GP (maedi-visna virus (KV1772 isolate)).
Test [3] concerns the target MVV IN QQQ211PGG (maedi-visna virus (KV1772 isolate)).
Test [4] addresses MVV IN chimera QQQ211PFV304-314 (portion of the PFV IN CCD-CTD linker between MVV IN Gln210 and Gln214) (maedi-visna virus (KV1772 isolate) | prototype foamy virus (PFV)).
For test [5], the target named is maedi-visna virus (MVV) integrase, wild type, KV1772 isolate (maedi-visna virus (KV1772 isolate)).
For the next test, the target named is MVV IN E154Q. The settings on record: IN injected at 2 mg/mL (bar); Superdex-200 column; parent: est. 170; read off a plot.
The next test concerns the target MVV IN F223A. The conditions noted are these: IN injected at 2 mg/mL (bar); Superdex-200 column; parent: est. 170; read off a plot.
Another test has as its target MVV IN H12N. The conditions noted are these: IN injected at 2 mg/mL (bar); Superdex-200 column; parent: est. 170; read off a plot.
For the next test, the target named is MVV IN I272E. The settings on record: IN injected at 2 mg/mL (bar); Superdex-200 column; parent: est. 170; read off a plot.
The target in another test is MVV IN QQ207GP. The conditions noted are these: IN injected at 2 mg/mL (bar); Superdex-200 column; parent: est. 170; read off a plot.
Another test concerns the target MVV IN QQQ211PGG. The conditions noted are these: IN injected at 2 mg/mL (bar); Superdex-200 column; parent: est. 170; read off a plot.
A further test addresses MVV IN R231E. The settings on record: IN injected at 2 mg/mL (bar); Superdex-200 column; parent: est. 170; read off a plot.
The next test addresses MVV IN V252A. The conditions noted are these: IN injected at 2 mg/mL (bar); Superdex-200 column; parent: est. 170; read off a plot.
The target of the next test is MVV IN V252D. The conditions noted are these: IN injected at 2 mg/mL (bar); Superdex-200 column; parent: est. 170; read off a plot.
A further test deals with MVV IN V263E. The conditions noted are these: IN injected at 2 mg/mL (bar); Superdex-200 column; parent: est. 170; read off a plot.
The target in another test is MVV IN W245A. The conditions noted are these: IN injected at 2 mg/mL (bar); Superdex-200 column; parent: est. 170; read off a plot.
A further test addresses MVV IN W245E. The settings on record: IN injected at 2 mg/mL (bar); Superdex-200 column; parent: est. 170; read off a plot.
For the next test, the target named is MVV IN W245L. The conditions noted are these: IN injected at 2 mg/mL (bar); Superdex-200 column; parent: est. 170; read off a plot.
The target in a further test is MVV IN Y225A. The conditions noted are these: IN injected at 2 mg/mL (bar); Superdex-200 column; parent: est. 170; read off a plot.
A further test deals with MVV IN Y261A. The settings on record: IN injected at 2 mg/mL (bar); Superdex-200 column; parent: est. 170; read off a plot.
Another test addresses MVV IN Y261E. The settings on record: IN injected at 2 mg/mL (bar); Superdex-200 column; parent: est. 170; read off a plot.

As usually defined, the stoichiometry N is the number of molecules, sites or subunits per partner or assembly.

Values joined by “and” are separate entries in the source; they are usually repeats but may differ in a detail not shown here. Equal values may be shown once.

Chain of maedi-visna virus (MVV) integrase, wild type, KV1772 isolate (P03370 1226-1506 limits assumed): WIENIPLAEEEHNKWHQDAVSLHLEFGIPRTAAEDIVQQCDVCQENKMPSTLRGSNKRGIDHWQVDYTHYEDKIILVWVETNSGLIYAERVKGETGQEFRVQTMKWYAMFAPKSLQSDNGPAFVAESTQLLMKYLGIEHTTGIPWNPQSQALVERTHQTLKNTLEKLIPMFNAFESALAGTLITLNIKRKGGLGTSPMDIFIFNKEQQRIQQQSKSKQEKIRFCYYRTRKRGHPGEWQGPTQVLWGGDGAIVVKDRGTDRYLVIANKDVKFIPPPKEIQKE

Regarding MVV IN H12N (enzyme), the stoichiometry N in test [1] came out at 2.

In turn, MVV IN QQ207GP (enzyme) registered a stoichiometry N in test [2] of 2.

As to MVV IN QQQ211PGG (enzyme), the stoichiometry N in test [3] is 2.

“MVV IN chimera QQQ211PFV304-314 (portion of the PFV IN CCD-CTD linker between MVV IN Gln210 and Gln214) (enzyme)”: the stoichiometry N in test [4] amounted to 2.

As to “maedi-visna virus (MVV) integrase, wild type, KV1772 isolate (enzyme)”, the stoichiometry N in test [5] was 4 and 8.

Consider “maedi-visna virus (MVV) integrase, wild type, KV1772 isolate E154Q”, for which the other: average molecular mass in the test with MVV IN E154Q was determined as 180 kDa.

On to “maedi-visna virus (MVV) integrase, wild type, KV1772 isolate F223A”, for which the other: average molecular mass with MVV IN F223A came out at 120 kDa.

Regarding “maedi-visna virus (MVV) integrase, wild type, KV1772 isolate H12N”, the other: average molecular mass with MVV IN H12N came out at 40 kDa.

As to “maedi-visna virus (MVV) integrase, wild type, KV1772 isolate I272E”, the other: average molecular mass with MVV IN I272E was determined as 100 kDa.

As for “maedi-visna virus (MVV) integrase, wild type, KV1772 isolate Q207G; Q208P”, the other: average molecular mass with MVV IN QQ207GP is 65 kDa.

For “maedi-visna virus (MVV) integrase, wild type, KV1772 isolate Q211P; Q212G; Q213G”, the other: average molecular mass with MVV IN QQQ211PGG was found to be 65 kDa.

As for “maedi-visna virus (MVV) integrase, wild type, KV1772 isolate R231E”, the other: average molecular mass with MVV IN R231E is 180 kDa.

Regarding “maedi-visna virus (MVV) integrase, wild type, KV1772 isolate V252A”, the other: average molecular mass with MVV IN V252A was 120 kDa.

Regarding “maedi-visna virus (MVV) integrase, wild type, KV1772 isolate V252D”, the other: average molecular mass with MVV IN V252D was 80 kDa.

As to “maedi-visna virus (MVV) integrase, wild type, KV1772 isolate V263E”, in the test with MVV IN V263E, the other: average molecular mass turned out to be 110 kDa.

For the substance “maedi-visna virus (MVV) integrase, wild type, KV1772 isolate W245A”, in the test with MVV IN W245A, the other: average molecular mass worked out at 120 kDa.

“maedi-visna virus (MVV) integrase, wild type, KV1772 isolate W245E”: the other: average molecular mass with MVV IN W245E came out at 90 kDa.

As for “maedi-visna virus (MVV) integrase, wild type, KV1772 isolate W245L”, the other: average molecular mass with MVV IN W245L amounted to 110 kDa.

Consider “maedi-visna virus (MVV) integrase, wild type, KV1772 isolate Y225A”, for which the other: average molecular mass with MVV IN Y225A is 120 kDa.

On to “maedi-visna virus (MVV) integrase, wild type, KV1772 isolate Y261A”, for which the other: average molecular mass with MVV IN Y261A is 100 kDa.

On to “maedi-visna virus (MVV) integrase, wild type, KV1772 isolate Y261E”, for which the other: average molecular mass with MVV IN Y261E is 78 kDa.
